Measurements taken from the supplement of paper PMC10567573.

B1: TRIM15 (parent)
chain: LSQMGAQSSGKILLCPLCQEEEQA
B2: FLOT1 (parent)
chain: QMAKKAEAFQLYQEAAQLDMLLEK

Variants of: B1
Assay: protein stability index of a GFP-peptide fusion (GPS, HEK-293T) (PSI 1-6); higher = more stable
Settings: c terminus: a fixed tail appended
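Also: lentivirally expressed fusions sorted by FACS into six bins by GFP to DsRed ratio, PSI derived from sequencing read proportions per bin multiplied by bin number.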

Protein stability index: each site, then its substitutions
E20: G 2.81 | R 3.77 | D 4.27 | H 2.65 | A 3.49 | C 2.44 | F 2.27 | V 2.79 | Y 2.01 | I 2.79 | L 2.82 | S 2.64 | M 2.73 | K 3.58 | T 3.19 | P 3.75
Q19: F 3.62 | H 3.24 | G 3.98 | L 2.62 | W 2.78 | S 3.23 | R 3.54 | Y 3.73 | I 3.18 | K 3.46 | T 3.83 | E 4.01 | C 2.52 | A 4.35 | D 4.16 | N 3.57 | M 3.19 | P 4.42 | V 4.04
E21: W 2.89 | C 2.55 | A 3.22 | Q 2.91 | K 2.85 | G 2.83 | D 3.36 | V 3.08 | H 3.31 | P 3.36 | N 2.92 | T 3.36 | F 2.4 | I 2.26 | R 2.48 | Y 2.82 | M 2.88
Q23: L 3.12 | N 3.67 | G 3.47 | W 3.56 | A 2.89 | T 3.33 | I 3.2 | D 2.89 | H 3.96 | Y 3.09 | V 3.11 | F 2.96 | E 4.53 | M 3.31 | C 3.58
C18: P 3.47 | A 5.26 | F 3.81 | M 4.61 | H 4.7 | D 5.2 | N 4.38 | K 4.27 | E 5.13 | T 4.86 | S 4.92 | Y 4.27 | W 4.59 | Q 5.56 | V 4.76 | R 4.21 | L 4.82 | I 3.49
E22: F 2.6 | V 4.13 | H 3.67 | N 4.15 | I 2.63 | W 2 | K 3.74 | D 3.41 | T 3.46 | Y 2.02 | C 2.82 | Q 3.2 | A 4.08 | P 2.56 | G 3.12 | S 2.89 | M 2.56 | L 3.38
L17: Q 4.19 | V 3.79 | N 4.43 | P 5.04 | R 4.31 | T 4.3 | W 3.57 | S 4.24 | Y 3.34 | M 3.19
A24: L 2.63 | T 3.72 | S 3.94 | K 4.51 | E 3.29 | N 3.88 | R 2.99 | W 2.44 | D 4.56 | Y 3.55 | Q 4.37 | G 3.51 | M 2.84 | F 2.55 | V 3.28 | C 3.14 | I 3.87 | H 3.59 | P 3.45

Variants of: B2
Assay: as above
Settings: c terminus: a fixed tail appended

Protein stability index, by site and new letter:
M2: Q 2.01 | V 1.22 | T 1.76 | D 2.45 | P 1.46 | F 1.78
Y12: H 2.98 | A 4.22 | L 2.03 | R 4.75 | C 3.06 | E 4.41 | F 1.67 | N 4.47 | T 4.17 | K 4.88
Q13: Y 1.96 | C 2.46 | D 4.08 | M 3.5 | F 1.52 | R 2.81 | I 2.49 | E 2.92 | G 3.57 | T 2.85 | S 1.8 | P 3.87
Q1: S 3.78 | V 2.23 | H 2.21 | D 1.9 | T 2.27 | Y 2.96
D19: C 2.13
